Results reported in article doi:10.1101/2021.01.14.426695.

Columns and labels:
[1] = molecular target: S-R (SARS-CoV-2 S protein trimer, furin site deleted to a single arginine) (SARS-CoV-2); assay: negative stain EM
[2] = molecular target: S-R/PP (SARS-CoV-2 S protein trimer, furin site deleted to a single arginine, two stabilizing prolines) (SARS-CoV-2); assay: negative stain EM

S-R (SARS-CoV-2 S protein trimer, furin site deleted to a single arginine)
stoichiometry N [1]: 3

S-R/PP (SARS-CoV-2 S protein trimer, furin site deleted to a single arginine, two stabilizing prolines)
stoichiometry N [2]: 3
